Read-outs that look alike come from different tables or passages of the source.
T1: cPD-1 on CHOS-cPD-1 cells (Macaca fascicularis, UniProt Q15116 25-288 (human entry))
T1 chain: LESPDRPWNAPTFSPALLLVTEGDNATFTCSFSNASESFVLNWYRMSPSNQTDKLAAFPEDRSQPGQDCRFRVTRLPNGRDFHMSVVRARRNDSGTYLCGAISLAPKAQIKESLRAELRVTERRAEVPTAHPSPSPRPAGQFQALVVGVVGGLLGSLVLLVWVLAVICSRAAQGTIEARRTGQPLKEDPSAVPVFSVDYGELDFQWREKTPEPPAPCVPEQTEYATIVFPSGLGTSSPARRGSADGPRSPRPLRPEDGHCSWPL

T2: cPD-1 ECD-Avi-His (Macaca fascicularis, UniProt Q15116 25-170 (human entry))
T2 construct: tied to the construct by its name only; not shown: Avi tag and His tag
T2 chain: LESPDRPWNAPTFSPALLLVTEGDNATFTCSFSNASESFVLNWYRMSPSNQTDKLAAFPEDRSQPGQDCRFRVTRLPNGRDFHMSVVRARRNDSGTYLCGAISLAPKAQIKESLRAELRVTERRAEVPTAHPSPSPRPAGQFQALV

T3: hCD32A (167 His, His Tag, Sino Biological, 10374-H08C1) (human, UniProt P12318 34-218)
T3 construct: Bought protein; not shown: His tag
T3 sequence (looked up): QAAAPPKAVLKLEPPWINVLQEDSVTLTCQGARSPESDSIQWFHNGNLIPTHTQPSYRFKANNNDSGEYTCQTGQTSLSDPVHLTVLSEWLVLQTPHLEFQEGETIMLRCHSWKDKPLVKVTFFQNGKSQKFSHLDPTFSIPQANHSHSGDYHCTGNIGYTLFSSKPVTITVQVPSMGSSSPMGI

T4: hCD32B (ECD, His tag, Sino Biological, 10259-H08C) (human, UniProt P31994 43-217)
T4 construct: extracellular domain; Bought protein; not shown: His tag
T4 sequence (looked up): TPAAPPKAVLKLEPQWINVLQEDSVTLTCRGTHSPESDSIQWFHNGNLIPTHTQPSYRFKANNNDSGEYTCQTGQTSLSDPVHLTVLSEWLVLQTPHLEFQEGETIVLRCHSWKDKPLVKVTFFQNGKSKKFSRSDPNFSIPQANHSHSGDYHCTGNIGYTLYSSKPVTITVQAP


Legend:
[1] = biological target: T5, PD1 on Jurkat-PD1-NFAT reporter cells (UniProt Q15116 25-288, limits assumed); test: cell-based or functional assay
[2] = biological target: T6, hPD-1 on CHOS-hPD-1 cells (Homo sapiens, UniProt Q15116 25-288); test: cell-based or functional assay
[3] = biological target: T1, cPD-1 on CHOS-cPD-1 cells; test: flow cytometry on CHOS-cPD-1 cells, MFI, 4-parameter fit
[4] = biological target: T6, hPD-1 on CHOS-hPD-1 cells; test: flow cytometry on CHOS-hPD-1 cells, MFI, 4-parameter fit
[5] = biological target: T7, hPD-1 ECD-Avi-His (human, UniProt Q15116 25-170); test: SPR (Biacore 8K), antibody captured on Protein A chip, antigen flowed as analyte
T7 construct: tied to the construct by its name only; not shown: Avi tag and His tag

[6] = biological target: T2, cPD-1 ECD-Avi-His; test: as above
[7] = biological target: T3, hCD32A (167 His, His Tag, Sino …); test: SPR (Biacore 8K), His-tagged Fc receptor captured by anti-His antibody on CM5 chip, antibody flowed as analyte
[8] = biological target: T4, hCD32B (ECD, His tag, Sino Biological, …); test: as above
[9] = biological target: T8, hCD16A(158F)-ECD-C-his (human, UniProt P08637 17-208); test: as above
T8 construct: extracellular domain; Homemade; not shown: C-terminal His tag

[10] = biological target: T9, hCD16A(158V)-ECD-C-his (human, UniProt P08637 17-208); test: as above
T9 construct: extracellular domain; Homemade; not shown: C-terminal His tag

[11] = biological target: T3, hCD32A (167 His, His Tag, Sino …); test: SPR; ratio against 1B5-zu1-hIgG1; end of the range assigned by Table 7
[12] = biological target: T4, hCD32B (ECD, His tag, Sino Biological, …); test: SPR; ratio against 1B5-zu1-hIgG1; end of the range assigned by Table 8
[13] = biological target: T8, hCD16A(158F)-ECD-C-his; test: SPR; ratio against 1B5-zu1-hIgG1; end of the range assigned by Table 9
[14] = biological target: T9, hCD16A(158V)-ECD-C-his; test: SPR; ratio against 1B5-zu1-hIgG1; end of the range assigned by Table 10
[15] = biological target: T5, PD1 on Jurkat-PD1-NFAT reporter cells; test: cell-based or functional assay; remark: listed apart in the source
[16] = biological target: T3, hCD32A (167 His, His Tag, Sino …); test: SPR; ratio against 1C4-zu1-hIgG1; end of the range assigned by Table 7
[17] = biological target: T4, hCD32B (ECD, His tag, Sino Biological, …); test: SPR; ratio against 1C4-zu1-hIgG1; end of the range assigned by Table 8
[18] = biological target: T8, hCD16A(158F)-ECD-C-his; test: SPR; ratio against 1C4-zu1-hIgG1; end of the range assigned by Table 9
[19] = biological target: T9, hCD16A(158V)-ECD-C-his; test: SPR; ratio against 1C4-zu1-hIgG1; end of the range assigned by Table 10

T8 sequence (P08637 17-208): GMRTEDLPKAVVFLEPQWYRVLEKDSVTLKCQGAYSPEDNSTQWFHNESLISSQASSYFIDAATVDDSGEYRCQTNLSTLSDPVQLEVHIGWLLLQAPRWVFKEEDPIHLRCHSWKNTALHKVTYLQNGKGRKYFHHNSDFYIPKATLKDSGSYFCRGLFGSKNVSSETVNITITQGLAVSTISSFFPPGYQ
T9 sequence (P08637 17-208 F176V): as the sequence (P08637 17-208) above, with F160V counted along it
T6 sequence (Q15116 25-288 limits assumed): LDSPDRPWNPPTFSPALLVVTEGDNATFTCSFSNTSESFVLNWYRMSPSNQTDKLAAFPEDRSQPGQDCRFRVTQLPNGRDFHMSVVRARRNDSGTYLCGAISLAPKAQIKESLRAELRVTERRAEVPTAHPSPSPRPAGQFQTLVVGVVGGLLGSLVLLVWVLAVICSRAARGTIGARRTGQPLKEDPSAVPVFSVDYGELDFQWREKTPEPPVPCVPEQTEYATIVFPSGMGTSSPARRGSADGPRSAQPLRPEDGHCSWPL
T5 sequence (Q15116 25-288 limits assumed): as above
T7 sequence (Q15116 25-170): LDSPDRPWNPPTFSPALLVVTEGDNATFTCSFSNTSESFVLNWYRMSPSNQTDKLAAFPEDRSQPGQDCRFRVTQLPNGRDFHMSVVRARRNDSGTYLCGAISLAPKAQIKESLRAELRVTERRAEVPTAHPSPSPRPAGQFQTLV

EC50 of inhibition of Jurkat-PD1-NFAT reporter cell activation [1] [nM] | EC50 of ADCC (LDH release, human NK cells, target cells CHOS-hPD-1) [2] [nM] | EC50 [3] [nM] | EC50 [4] [nM] | Kd [5] [nM] | koff [5] [s⁻¹] | kon [5] [M⁻¹ s⁻¹] | Kd [6] [nM] | koff [6] [s⁻¹] | kon [6] [M⁻¹ s⁻¹] | Kd [7] [nM] | Kd [8] [nM] | Kd [9] [nM] | koff [9] [s⁻¹] | kon [9] [M⁻¹ s⁻¹] | Kd [10] [nM] | koff [10] [s⁻¹] | kon [10] [M⁻¹ s⁻¹] | EC50 of inhibition of Jurkat-PD1-NFAT reporter cell activation [15] [nM] | Binder | further results
0.13 | 0.00512 | 20.2 | 11.9 | 11.8 | 0.0024 | 204000 | 38.5 | 0.00841 | 219000 | 5430 | 13400 | 326 | 0.03 | 92100 | 83 | 0.00798 | 96100 | – | 1B5-zu1-hIgG1 (antibody, Humanized form of B1-1B5-H1L1; human IgG1 / kappa) heavy: not shown light: EIVLTQSPATLSLSPGERATLTCRASSSVSSSYLLWYQQKSGAAPRLWIYSTSNLASGVPARFSGSGSGTDFTLTISSLEPEDFATYYCQQYSGYPLTFGQGTKLEIKRTVAAPSVFIFPPSDEQLKSGTASVVCLLNNFYPREAKVQWKVDNALQSGNSQESVTEQDSKDSTYSLSSTLTLSKADYEKHKVYACEVTHQGLSSPVTKSFNRGEC | –
0.15 | 0.00044 | 19.9 | 12.1 | 11.1 | 0.00231 | 209000 | 35.1 | 0.00856 | 243000 | 1470 | 1530 | 51.8 | 0.0354 | 684000 | 21.5 | 0.0103 | 481000 | – | 1B5-zu1-hIgG1 DD (antibody, Fc mutant of 1B5-zu1-hIgG1 with S239D/H268D (EU numbering)) heavy: not shown light: EIVLTQSPATLSLSPGERATLTCRASSSVSSSYLLWYQQKSGAAPRLWIYSTSNLASGVPARFSGSGSGTDFTLTISSLEPEDFATYYCQQYSGYPLTFGQGTKLEIKRTVAAPSVFIFPPSDEQLKSGTASVVCLLNNFYPREAKVQWKVDNALQSGNSQESVTEQDSKDSTYSLSSTLTLSKADYEKHKVYACEVTHQGLSSPVTKSFNRGEC | fold higher affinity than the antibody without DD [11]: 3 to 4 fold; fold higher affinity than the antibody without DD [12]: 6 to 9 fold; fold higher affinity than the antibody without DD [13]: 3 to 6 fold; fold higher affinity than the antibody without DD [14]: 3 to 4 fold
– | – | – | – | – | – | – | – | – | – | – | – | – | – | – | – | – | – | 0.12 | B1-1B5-H1L1 (antibody, human IgG1, kappa, V domains shown) VH: EVQLQQSGAELVKPGASVKMSCKAFGYTFTNYPIEWMKQSHGKSLEWIGNFHPYNDDTKYNEKFKGKAKLTVEKSSSTVYLELSRLTSDDSAVYYCAREDYGTYGGFAYWGQGTLVTVSS VL: EITVTQSPAIMSASPGEKVTMTCRASSSVSSSYLLWYQQKSGASPKLWIYSTSNLASGVPARFSGSGSGTSYSLTISSVEAEDAATYYCQQYSGYPLTFGAGTKLELKR | –
– | – | – | – | – | – | – | – | – | – | – | – | – | – | – | – | – | – | 0.14 | B1-1C4-H1L1 (antibody, human IgG1, kappa, V domains shown) VH: EVQLQQSGDDLVKPGASVKLSCKASGYTFTSYWITWIKQRPGQGLEWIGRIAPGSGSIYYDEMFKDKATLTVDPSSSTAYIQLSSLSSEDSAVYFCARLGNYGWTMDYWGQGTSVTVSS VL: DIVMTQTPKFLLVSAGDRVTITCKASQSVTNNVAWYQQAPGQSPKLLIYYVSNRYTGVPDRFAGSGYGTDFTFTISTVQAEDLAVYFCQQDYSSWTFGGGTKLEIKR | –
0.12 | 0.0019 | 20.3 | 14.3 | 8.26 | 0.00195 | 236000 | 15.6 | 0.00392 | 251000 | 4940 | 10000 | 222 | 0.0248 | 112000 | 80.2 | 0.00775 | 96600 | – | 1C4-zu1-hIgG1 (antibody, Humanized form of B1-1C4-H1L1; human IgG1 / kappa) heavy: not shown light: DIVMTQSPKSLAVSLGERATINCKASQSVTNNVAWYQQKPGQPPKLLIYYVSNRYTGVPDRFSGSGYGTDFTLTISSLQAEDVAVYFCQQDYSSWTFGGGTKVEIKRTVAAPSVFIFPPSDEQLKSGTASVVCLLNNFYPREAKVQWKVDNALQSGNSQESVTEQDSKDSTYSLSSTLTLSKADYEKHKVYACEVTHQGLSSPVTKSFNRGEC | –
0.16 | 0.00033 | 20.1 | 13.7 | 8.05 | 0.00194 | 240000 | 15.2 | 0.00393 | 259000 | 1610 | 1680 | 62.7 | 0.0423 | 674000 | 25.4 | 0.0113 | 445000 | – | 1C4-zu1-hIgG1 DD (antibody, Fc mutant of 1C4-zu1-hIgG1 with S239D/H268D (EU numbering)) heavy: not shown light: DIVMTQSPKSLAVSLGERATINCKASQSVTNNVAWYQQKPGQPPKLLIYYVSNRYTGVPDRFSGSGYGTDFTLTISSLQAEDVAVYFCQQDYSSWTFGGGTKVEIKRTVAAPSVFIFPPSDEQLKSGTASVVCLLNNFYPREAKVQWKVDNALQSGNSQESVTEQDSKDSTYSLSSTLTLSKADYEKHKVYACEVTHQGLSSPVTKSFNRGEC | fold higher affinity than the antibody without DD [16]: 3 to 4 fold; fold higher affinity than the antibody without DD [17]: 6 to 9 fold; fold higher affinity than the antibody without DD [18]: 3 to 6 fold; fold higher affinity than the antibody without DD [19]: 3 to 4 fold

Reference: patent publication EP4793286A1 (Shanghai Scizeng Medical Technology Co., Ltd., dated 2026)
